Among the data in paper PMC6555819, “Comprehensive study of nuclear receptor DNA binding provides a revised framework for understanding receptor specificity” are binding signal values, retold here.

B1: NRC3_wobSeed39_DR1_T8G_o1 (dsDNA)
DNA 1: GCCGAACGAGGTCAAAGGACAGTGAAAGGCGACGTAGCGATTGACAGCGTAGAATGAAGG
DNA 2: CCTTCATTCTACGCTGTCAATCGCTACGTCGCCTTTCACTGTCCTTTGACCTCGTTCGGC
B2: NRC3_wobSeed140_DR5_T13C_o1 (dsDNA)
DNA 1: GCAGAATGAGGTCATACGTAGATCAGGGAAGAAAGTGCGATTGACAGCGTAGAATGAAGG
DNA 2: CCTTCATTCTACGCTGTCAATCGCACTTTCTTCCCTGATCTACGTATGACCTCATTCTGC
B3: NRC3_wobSeed87_DR3_T8A_o1 (dsDNA)
DNA 1: GCCGAACAAGGTCATCCAGGACAGTGAATACATTGAGCGATTGACAGCGTAGAATGAAGG
DNA 2: CCTTCATTCTACGCTGTCAATCGCTCAATGTATTCACTGTCCTGGATGACCTTGTTCGGC
B4: NRC3_wobSeed114_DR4_T5A_o1 (dsDNA)
DNA 1: GCAAAACAGGGTCATCGTAGGCCAGAGTACGCACAGGCGATTGACAGCGTAGAATGAAGG
DNA 2: CCTTCATTCTACGCTGTCAATCGCCTGTGCGTACTCTGGCCTACGATGACCCTGTTTTGC
B5: NRC3_wobSeed114_DR4_G20C_o1 (dsDNA)
DNA 1: B4 DNA 1 with A5T, G20C
DNA 2: B4 DNA 2 with C41G, T56A
B6: NRC3_wobSeed114_DR4_C7A_o1 (dsDNA)
DNA 1: B4 DNA 1 with A5T, C7A
DNA 2: B4 DNA 2 with G54T, T56A
B7: NRC3_wobSeed63_DR2_T8A_o1 (dsDNA)
DNA 1: GCCGAACAAGGTCACCAGGACAGTGAAGAGGTTGGAGCGATTGACAGCGTAGAATGAAGG
DNA 2: CCTTCATTCTACGCTGTCAATCGCTCCAACCTCTTCACTGTCCTGGTGACCTTGTTCGGC
B8: NRC3_wobSeed18_DR0_C18T_o1 (dsDNA)
DNA 1: GCGATACAGGGTCAAGGTCAGAGTACGCGTATTGATGCGATTGACAGCGTAGAATGAAGG
DNA 2: CCTTCATTCTACGCTGTCAATCGCATCAATACGCGTACTCTGACCTTGACCCTGTATCGC
B9: NRC3_wobSeed14_DR0_T8G_o1 (dsDNA)
DNA 1: GCCCTGCGAGGTCATGGTCAGCTAATCTACAGTATGGCGATTGACAGCGTAGAATGAAGG
DNA 2: CCTTCATTCTACGCTGTCAATCGCCATACTGTAGATTAGCTGACCATGACCTCGCAGGGC
B10: NRC3_wobSeed116_DR4_T13C_o1 (dsDNA)
DNA 1: GCAGAATGAGGTCACCAAAGATCAGGGAAACGCTTGGCGATTGACAGCGTAGAATGAAGG
DNA 2: CCTTCATTCTACGCTGTCAATCGCCAAGCGTTTCCCTGATCTTTGGTGACCTCATTCTGC
B11: NRC3_wobSeed135_DR5_T8G_o1 (dsDNA)
DNA 1: GCCGAACGAGGTCATTGACAGGACAGTGAATAGTAAGCGATTGACAGCGTAGAATGAAGG
DNA 2: CCTTCATTCTACGCTGTCAATCGCTTACTATTCACTGTCCTGTCAATGACCTCGTTCGGC
B12: NRC3_wobSeed135_DR5_T8A_o1 (dsDNA)
DNA 1: B11 DNA 1 with G8A
DNA 2: B11 DNA 2 with C53T
B13: NRC3_wobSeed20_DR0_T13C_o1 (dsDNA)
DNA 1: GCAGAATGAGGTCAAGATCAGGGAAACAGAATACATGCGATTGACAGCGTAGAATGAAGG
DNA 2: CCTTCATTCTACGCTGTCAATCGCATGTATTCTGTTTCCCTGATCTTGACCTCATTCTGC

Residue numbers refer to the chain shown, from its start.

FXR:RXRa, sequence (Q96RI1 whole entry, chain 1 of 2): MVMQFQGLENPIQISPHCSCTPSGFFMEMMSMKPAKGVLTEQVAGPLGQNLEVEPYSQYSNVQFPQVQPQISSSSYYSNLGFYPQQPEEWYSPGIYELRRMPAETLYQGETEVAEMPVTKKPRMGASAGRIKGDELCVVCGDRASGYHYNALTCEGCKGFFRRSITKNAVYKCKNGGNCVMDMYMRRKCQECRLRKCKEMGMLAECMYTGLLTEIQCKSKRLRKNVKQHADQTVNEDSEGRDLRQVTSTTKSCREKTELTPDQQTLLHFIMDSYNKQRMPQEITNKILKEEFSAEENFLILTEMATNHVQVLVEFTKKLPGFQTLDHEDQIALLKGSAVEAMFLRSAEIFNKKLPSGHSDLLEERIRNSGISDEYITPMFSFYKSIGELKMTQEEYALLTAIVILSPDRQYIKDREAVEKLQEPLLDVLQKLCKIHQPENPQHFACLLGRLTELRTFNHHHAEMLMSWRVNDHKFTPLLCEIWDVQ
FXR:RXRa, sequence (P19793 whole entry, chain 2 of 2): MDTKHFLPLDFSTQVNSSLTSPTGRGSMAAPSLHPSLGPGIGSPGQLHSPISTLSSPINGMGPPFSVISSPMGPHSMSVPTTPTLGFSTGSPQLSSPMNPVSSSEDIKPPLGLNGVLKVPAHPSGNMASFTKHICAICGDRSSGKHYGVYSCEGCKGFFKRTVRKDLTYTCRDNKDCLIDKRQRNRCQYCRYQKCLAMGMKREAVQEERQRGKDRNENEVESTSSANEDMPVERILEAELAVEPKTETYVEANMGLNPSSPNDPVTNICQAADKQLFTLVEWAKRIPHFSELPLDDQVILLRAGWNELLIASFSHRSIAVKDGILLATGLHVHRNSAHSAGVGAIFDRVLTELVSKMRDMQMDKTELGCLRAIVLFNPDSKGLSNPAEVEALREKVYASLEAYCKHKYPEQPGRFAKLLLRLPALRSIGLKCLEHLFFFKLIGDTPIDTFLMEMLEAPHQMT

This series has as its target FXR:RXRa (Homo sapiens, UniProt Q96RI1;P19793 full;full). Kind of series: no ligand; PBM; 270 nM : 90 nM RXRa; PBS pH 7.4, 2% milk, 0.02% Triton X-100, 1 mM DTT, BSA, 0.4 mg/ml salmon testes DNA. Conditions: tags: His kept;His cleaved; copies: 1;1; label: surface-attached array probe. The gist of the method: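 For binding z-scores, the reference was random background probes on custom Agilent 4×180K protein-binding microarrays. These arrays were incubated 1 h with ligand-free nuclear receptor dimers in PBS pH 7.4, 2% milk, 0.02% Triton X-100, 1 mM DTT, 0.2 mg/mL BSA and 0.4 mg/ml salmon testes DNA. Fluorescence was scanned after antibody detection of each partner (one per run) and regression-normalized.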
Turning to B1, the binding signal was 8.11 PBM z-score against 500 random probes.
The figure for B2 is 8.1 PBM z-score against 500 random probes; for B3 it is 8.1 PBM z-score against 500 random probes; for B4 it is 7.8 PBM z-score against 500 random probes.
The figure for B5 is 7.71 PBM z-score against 500 random probes; for B6 it is 7.8 PBM z-score against 500 random probes; for B7 it is 7.74 PBM z-score against 500 random probes.
Under B8 stands 7.81 PBM z-score against 500 random probes; under B9, 7.8 PBM z-score against 500 random probes; under B10, 7.91 PBM z-score against 500 random probes.
For B11, the binding signal was 7.83 PBM z-score against 500 random probes.
Under B12 stands 7.74 PBM z-score against 500 random probes.
Take B13: the binding signal is 7.87 PBM z-score against 500 random probes.
